Results on 2 molecules are retold here after patent publication US20240400689A1.

Assay [1] concerns the target human CD276 protein (human) (UniProt Q5ZPR3). The assay can be described thus: FACS on SKOV3 cells.
Assay [2] shares this target. The assay can be described thus: cell-based or functional assay.
The target in assay [3] is T1, HUMAN B7H3 (Biacore analyte) (human) (UniProt Q5ZPR3).
T1 sequence (looked up): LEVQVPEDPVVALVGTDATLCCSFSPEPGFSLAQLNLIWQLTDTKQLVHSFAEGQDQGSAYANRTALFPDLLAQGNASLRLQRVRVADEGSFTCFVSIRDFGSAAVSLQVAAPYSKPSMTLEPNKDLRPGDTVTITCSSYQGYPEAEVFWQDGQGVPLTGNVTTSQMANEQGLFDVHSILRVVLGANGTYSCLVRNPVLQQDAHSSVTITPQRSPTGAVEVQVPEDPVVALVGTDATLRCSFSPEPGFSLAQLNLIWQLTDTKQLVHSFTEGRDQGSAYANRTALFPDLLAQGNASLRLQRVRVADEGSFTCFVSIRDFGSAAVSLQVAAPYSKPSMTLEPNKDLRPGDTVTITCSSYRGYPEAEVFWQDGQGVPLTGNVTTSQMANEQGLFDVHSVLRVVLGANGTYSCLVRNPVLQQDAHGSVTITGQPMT
Nature of the assay: SPR, Biacore 8K, antibody captured, B7H3 as analyte, 1:1 binding. (In SPR one partner is held on a chip, and binding of the other changes the refractive index at the surface.)

Assay [4] concerns the target mouse CD276 protein (mouse) (UniProt Q8VE98). The assay can be described thus: FACS on CHO-S-mCD276 cells.

Chain of mouse CD276 protein (mouse) (Q8VE98 29-316): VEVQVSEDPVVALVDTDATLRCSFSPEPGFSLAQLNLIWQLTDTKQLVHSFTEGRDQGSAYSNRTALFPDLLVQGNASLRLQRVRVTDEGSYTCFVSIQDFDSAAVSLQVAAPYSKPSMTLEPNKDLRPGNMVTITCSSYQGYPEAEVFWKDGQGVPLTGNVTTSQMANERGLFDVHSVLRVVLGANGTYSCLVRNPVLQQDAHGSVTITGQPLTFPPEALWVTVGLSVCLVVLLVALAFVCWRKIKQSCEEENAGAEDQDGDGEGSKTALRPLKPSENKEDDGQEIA

B1: Enoblituzumab (antibody, part only; not given: constant regions, V domains shown, not shown: another chain or arm of the molecule)
VH: EVQLVESGGGLVQPGGSLRLSCAASGFTFSSFGMHWVRQAPGKGLEWVAYISSDSSAIYYADTVKGRFTISRDNAKNSLYLQMNSLRDEDTAVYYCGRGRENIYYGSRLDYWGQGTTVTVSS
VL: DIQLTQSPSFLSASVGDRVTITCKASQNVDTNVAWYQQKPGKAPKALIYSASYRYSGVPSRFSGSGSGTDFTLTISSLQPEDFATYYCQQYNNYPFTFGQGTKLEIK
Turning to B1, in assay [1], the EC50 is 0.985 µg/mL and the MFI (Max) is 830. In assay [2], this molecule showed an EC50 of antibody induced ADCC effect on SKOV3 of 0.0864 µg/mL; an EC50 of antibody induced CDC effect of 7.28 nM; a Top cytotoxicity (%), CDC of 80.1%. In assay [3], this molecule came in with a Kd of 3.8 nM, a koff of 0.000486 s⁻¹ and a kon of 128000 M⁻¹ s⁻¹.

B2: 10-B9-D10-A12 (antibody, V domains shown)
VH: EVQLQESGPELVRPGVSVKISCKGSGYTFTDYTMHWVKLSHAKSLEWIGVISTYYGNTNYNQKFKGKATLTVDKSSSTAYMELARLTSEDSAIYYCARASYGSGYGPYYWYFDVWGAGTTVTVSS
VL: DIQMTQSPASLFASVGETVTITCRASEKIYSYLAWYFQKQGKSPQFLVYNANALAEGVPSRFSGSGSGTQFSLKINSLQPEDFGTYYCQHHYGTPVTFGAGSKLELK
Consider B2, for which, in assay [4], the FACS MFI is 3170.

The term EC50 denotes the concentration giving half of the maximal effect. In general, Kd refers to the equilibrium constant for the complex coming apart. Lower therefore signals a tighter complex. For orientation: koff means the first-order rate constant of dissociation. A lower koff goes with slow dissociation. Broadly, the kon is the second-order rate constant of association. Low readings indicate slow association, high ones fast association.
